According to IntAct's records for PubMed 18583988:

B1: Nibrin (Homo sapiens), O60934 (parent)
chain: MWKLLPAAGPAGGEPYRLLTGVEYVVGRKNCAILIENDQSISRNHAVLTANFSVTNLSQTDEIPVLTLKDNSKYGTFVNEEKMQNGFSRTLKSGDGITFGVFGSKFRIEYEPLVACSSCLDVSGKTALNQAILQLGGFTVNNWTEECTHLVMVSVKVTIKTICALICGRPIVKPEYFTEFLKAVESKKQPPQIESFYPPLDEPSIGSKNVDLSGRQERKQIFKGKTFIFLNAKQHKKLSSAVVFGGGEARLITEENEEEHNFFLAPGTCVVDTGITNSQTLIPDCQKKWIQSIMDMLQRQGLRPIPEAEIGLAVIFMTTKNYCDPQGHPSTGLKTTTPGPSLSQGVSVDEKLMPSAPVNTTTYVADTESEQADTWDLSERPKEIKVSKMEQKFRMLSQDAPTVKESCKTSSNNNSMVSNTLAKMRIPNYQLSPTKLPSINKSKDRASQQQQTNSIRNYFQPSTKKRERDEENQEMSSCKSARIETSCSLLEQTQPATPSLWKNKEQHLSENEPVDTNSDNNLFTDTDLKSIVKNSASKSHAAEKLRSNKKREMDDVAIEDEVLEQLFKDTKPELEIDVKVQKQEEDVNVRKRPRMDIETNDTFSDEAVPESSKISQENEIGKKRELKEDSLWSAKEISNNDKLQDDSEMLPKKLLLTEFRSLVIKNSTSRNPSGINDDYGQLKNFKKFKKVTYPGAGKLPHIIGGSDLIAHHARKNTELEEWLRQEMEVQNQHAKEESLADDLFRYNPYLKRRR

Variants of: B1
Conditions: with mdc1_human MDC1, Q14676
Chain of mdc1_human MDC1, Q14676 (Q14676 whole entry): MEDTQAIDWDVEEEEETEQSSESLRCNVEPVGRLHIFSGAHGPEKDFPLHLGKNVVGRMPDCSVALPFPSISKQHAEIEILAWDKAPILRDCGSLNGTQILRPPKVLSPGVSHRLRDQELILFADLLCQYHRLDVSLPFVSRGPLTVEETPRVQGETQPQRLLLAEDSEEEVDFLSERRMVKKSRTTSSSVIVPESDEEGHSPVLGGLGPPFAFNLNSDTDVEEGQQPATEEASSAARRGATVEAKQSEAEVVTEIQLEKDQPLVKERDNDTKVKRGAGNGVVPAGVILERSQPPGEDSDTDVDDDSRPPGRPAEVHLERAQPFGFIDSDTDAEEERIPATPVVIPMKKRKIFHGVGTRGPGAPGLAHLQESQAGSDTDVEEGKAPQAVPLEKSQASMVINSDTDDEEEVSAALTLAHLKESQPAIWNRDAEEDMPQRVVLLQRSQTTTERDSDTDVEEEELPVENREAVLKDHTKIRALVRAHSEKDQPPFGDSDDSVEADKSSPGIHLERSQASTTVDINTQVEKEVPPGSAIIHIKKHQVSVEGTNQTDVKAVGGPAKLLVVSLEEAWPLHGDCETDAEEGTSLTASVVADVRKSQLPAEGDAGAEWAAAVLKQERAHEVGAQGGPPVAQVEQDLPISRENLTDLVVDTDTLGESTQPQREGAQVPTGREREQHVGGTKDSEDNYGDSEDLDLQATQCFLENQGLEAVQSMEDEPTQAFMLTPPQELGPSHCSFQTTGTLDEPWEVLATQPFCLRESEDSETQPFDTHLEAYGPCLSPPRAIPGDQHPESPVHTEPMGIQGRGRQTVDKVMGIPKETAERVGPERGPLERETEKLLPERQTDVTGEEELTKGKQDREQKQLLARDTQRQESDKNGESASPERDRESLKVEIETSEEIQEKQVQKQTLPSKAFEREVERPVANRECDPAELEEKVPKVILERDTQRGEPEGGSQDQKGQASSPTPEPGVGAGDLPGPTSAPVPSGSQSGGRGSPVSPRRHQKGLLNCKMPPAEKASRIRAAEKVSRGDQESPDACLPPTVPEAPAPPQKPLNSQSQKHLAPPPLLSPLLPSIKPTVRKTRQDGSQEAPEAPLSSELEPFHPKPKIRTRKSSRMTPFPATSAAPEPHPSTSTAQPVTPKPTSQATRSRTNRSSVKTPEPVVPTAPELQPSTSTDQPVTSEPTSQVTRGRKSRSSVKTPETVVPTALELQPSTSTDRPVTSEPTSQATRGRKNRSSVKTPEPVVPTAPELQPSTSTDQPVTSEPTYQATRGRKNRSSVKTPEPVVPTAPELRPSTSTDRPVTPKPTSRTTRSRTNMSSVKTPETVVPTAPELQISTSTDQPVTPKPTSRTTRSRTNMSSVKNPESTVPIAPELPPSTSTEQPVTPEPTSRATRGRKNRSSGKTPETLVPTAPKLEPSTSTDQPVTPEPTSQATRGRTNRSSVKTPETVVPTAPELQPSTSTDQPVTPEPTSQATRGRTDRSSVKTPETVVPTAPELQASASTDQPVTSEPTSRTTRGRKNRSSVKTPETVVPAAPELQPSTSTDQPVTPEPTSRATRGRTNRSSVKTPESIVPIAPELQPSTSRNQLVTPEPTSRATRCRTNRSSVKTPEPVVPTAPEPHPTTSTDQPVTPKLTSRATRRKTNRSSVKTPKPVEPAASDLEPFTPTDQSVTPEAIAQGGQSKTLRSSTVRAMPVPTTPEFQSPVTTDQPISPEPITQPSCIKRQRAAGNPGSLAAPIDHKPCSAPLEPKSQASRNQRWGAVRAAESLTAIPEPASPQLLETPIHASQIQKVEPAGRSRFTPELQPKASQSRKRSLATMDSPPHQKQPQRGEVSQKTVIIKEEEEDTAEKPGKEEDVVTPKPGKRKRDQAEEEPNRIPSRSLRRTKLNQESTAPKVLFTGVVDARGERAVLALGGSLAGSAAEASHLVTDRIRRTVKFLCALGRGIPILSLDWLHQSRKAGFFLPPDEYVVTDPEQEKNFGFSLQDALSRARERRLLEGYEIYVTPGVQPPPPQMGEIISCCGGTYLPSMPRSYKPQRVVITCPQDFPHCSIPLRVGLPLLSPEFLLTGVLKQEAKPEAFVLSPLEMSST

effect of a mutation on the interaction | Variant
disrupting interaction | K160M

Variants of: B1
Conditions: with mdc1_human MDC1, Q14676
Remark: another data set of the same source

effect of a mutation on the interaction | Variant
disrupting interaction | H45A

Variants of: B1
Conditions: with mdc1_human MDC1, Q14676
Remark: another data set of the same source

effect of a mutation on the interaction | Variant
disrupting interaction | R28A
